{"source": "a protein production outcome set (Wang et al. 2014)", "data": [{"assay": "label from the status in PepcDB records", "values": [{"sequence": "SSQQRPARKLPSLLLDPTEETVRRRCRDPINVEGLLPSKIRINLEDNVQYVSMRKALKVKRPRFDVSLVYLTRKFMDLVRSAPGGILDLNKVATKLGVRKRRVYDITNVLDGIDLVEKKSKNHIRWIGSDLSNFGAVPQQKKLQEELSDLSAMEDALDELIKDCAQQLFELTDDKENERLAYVTYQDIHSIQAFHEQIVIAVKAPAETRLDVPAPREDSITVHIRSTNGPIDVYLCEVEQGQTSNKRSEGVGTSSSESTHPEGPEEEENPQQSEELLEVSN", "protein production": "failed"}, {"sequence": "SSTFSASDFNSERYSSSRPSYPSDFYKMIDEYHDGERKLLVDVGCGPGTATLQMAQELKPFEQIIGSDLSATMIKTAEVIKEGSPDTYKNVSFKISSSDDFKFLGADSVDKQKIDMITAVECAHWFDFEKFQRSAYANLRKDGTIAIWGYADPIFPDYPEFDDLMIEVPYGKQGLGPYWEQPGRSRLRNMLKDSHLDPELFHDIQVSYFCAEDVRDKVKLHQHTKKPLLIRKQVTLVEFADYVRTWSAYHQWKQDPKNKDKEDVADWFIKESLRRRPELSTNTKIEVVWNTFYKLGKRV", "protein production": "not failed"}, {"sequence": "STALIQLYSLCEHAFHRHLGSGSDSRQTIERYSSPKVRRLLQTLRCFKPEEVHTQADGLRRMRHQVDQADFNRLSHTLESKCRMVDQMDQPPTETRALVATLEQILHTTEDRQTNRSAARVTPTPTPAHAKPKPSSGANTAQPRTRRRVY", "protein production": "failed"}, {"sequence": "STPSSKAINEVSTEDSNVTVTAVVLTSGRRSIQYNGEQHVIREGELADETGKISYTAWDGFSGDLQPGQTVQLGNAGVREWDGQPELNLGDSTDP", "protein production": "failed"}, {"sequence": "STQTDKALYNRLVPLVNGVREFSEIQLSRLKKLGIHKTDPSTLTEEEVRKFARLNIDPATITWQ", "protein production": "not failed"}, {"sequence": "SVMCAAIAAGAFAQGQGQGLAGINEATSLMTSYFDPATKLCYAIGAVLGLVGGIKTYGKFSSGDPDTSKTAASWFFACIFLIVAATILRSFF", "protein production": "failed"}, {"sequence": "SWKQAVRPCLRLPNFRFDWTSFNVLSAQKRWVKSFSTAVSIKEDPFWSAPLKKVLENHPETQYAYPDSTTVLECARGLVRDDLSSVLVFENVQDKLRWIGIFSERDIVRKVASQGLPLEKTQLKKAYTTRDRVETITVDKTVQDVVDILVSKDVQNIAVLYQKKHGDAFREDCYGVLTSRDLSTFFLSIPENDRSFFEQQTVKDVLESKGLDRSGDNTVYQIHQSVSVDEAIQKMDDHKVGTLLVTQSGK", "protein production": "failed"}, {"sequence": "SWNKKNEEKEDFGIIVILWKQVTVKEDGKVPLEPFLTAAKEVLRVVDAFGSGFRIVKNDIAGNIKKLYRANQTVHAETLQELIIAENSPDGLATVALLWLKRAFQFIASFLRRLVVTDKSLEQCVTEAYNCTLRPCHSAVIQKVFWGGVKLAPSRERFYRKLHPDLNIAKAKIEEFLIELHDPLCCIVQFFFQRELEDQCWGDEVYQRKDSSEWLKVSCEQDSV", "protein production": "not failed"}, {"sequence": "SYRSTQQITDFTKEILVNGEAVTAFDRQGDLPNVVVTPNFEAGVDQVVDQLAMNDSERDTTAIIGKSLAECEALTKALKARGEQVTLIQTENQRLAPGVIVVPSFLAKGLEFDAVIVWNANQENYQREDERQLLYTICSRAMHELTLVAVGSLSPLLARVNHALYTLNEAK", "protein production": "not failed"}, {"sequence": "TAPTLAEEVKQQSDGSVIIEGSANLRDLNKLFNWHLPINEVRTFNGLILEHLEKIPIEGTQFRLNQLNITVLEVADNMVKKVKVELIE", "protein production": "not failed"}, {"sequence": "TCIYKLADTVSDEYSLQKIIDFLSSTPQGKQAFQKRPQLGVVDLPKLHQLPTDTLGYVYADQMLQNNLQPLQSHEIDNDYQFFKTHITETHDLWHIVTGADTSILGEIQLEAFYVSQLYASRFWLALLAKNLLKAVIYDIELSTPYMDAISTGWVMAKQAKPLFGLEWNLLWEKPLADVRTSLNIILP", "protein production": "failed"}, {"sequence": "TDRARRVIVLAQEEARGLNHNYIGTEHILLGLIHEGEGVAAKALESMGISLEAVRQEVEEIIGHGSEPPAGHIPFTPRAKKVLELSLREGLQMGHKYIGTEFLLLGLIREGDGVAAQVLVKLGADLPRVRQQVIQLLSGYEGGESPENNNEGEAVGAG", "protein production": "failed"}, {"sequence": "TEDNIVELDGREWIMTRRQKTRVATNIILLDIPKRIIEKYAPVRKNGHLLPILSNQKMNAYLKEIADLCNIRKPLSFHMARYREFYKHQIINRLYCMSIKGGNEKETSELLYSTLFCHFKEPLFVDCKDSDFFNNMIAIEEL", "protein production": "failed"}]}]}
